In PMC2742357:

How the values were obtained:
[1] = biological target: smooth muscle myosin (phosphorylated) (Gallus gallus) (UniProt P10587); settings: cited from earlier work
[2] = biological target: phosphorylated smooth muscle myosin (pSMM) (Gallus gallus) (UniProt P10587); settings: cited from earlier work
[3] = biological target: phosphorylated smooth muscle myosin (chicken (endogenous in gizzard)) (UniProt P10587); assay: co-sedimentation
[4] = biological target: unphosphorylated smooth muscle myosin (chicken (endogenous in gizzard)) (UniProt P10587); assay: co-sedimentation
[5] = biological target: unphosphorylated smooth muscle myosin (chicken (endogenous in gizzard)) (UniProt P10587)
[6] = biological target: unphosphorylated smooth muscle myosin (chicken (endogenous in gizzard)) (UniProt P10587); assay: ELISA

Sequence of MLCK (P11799 935-1906): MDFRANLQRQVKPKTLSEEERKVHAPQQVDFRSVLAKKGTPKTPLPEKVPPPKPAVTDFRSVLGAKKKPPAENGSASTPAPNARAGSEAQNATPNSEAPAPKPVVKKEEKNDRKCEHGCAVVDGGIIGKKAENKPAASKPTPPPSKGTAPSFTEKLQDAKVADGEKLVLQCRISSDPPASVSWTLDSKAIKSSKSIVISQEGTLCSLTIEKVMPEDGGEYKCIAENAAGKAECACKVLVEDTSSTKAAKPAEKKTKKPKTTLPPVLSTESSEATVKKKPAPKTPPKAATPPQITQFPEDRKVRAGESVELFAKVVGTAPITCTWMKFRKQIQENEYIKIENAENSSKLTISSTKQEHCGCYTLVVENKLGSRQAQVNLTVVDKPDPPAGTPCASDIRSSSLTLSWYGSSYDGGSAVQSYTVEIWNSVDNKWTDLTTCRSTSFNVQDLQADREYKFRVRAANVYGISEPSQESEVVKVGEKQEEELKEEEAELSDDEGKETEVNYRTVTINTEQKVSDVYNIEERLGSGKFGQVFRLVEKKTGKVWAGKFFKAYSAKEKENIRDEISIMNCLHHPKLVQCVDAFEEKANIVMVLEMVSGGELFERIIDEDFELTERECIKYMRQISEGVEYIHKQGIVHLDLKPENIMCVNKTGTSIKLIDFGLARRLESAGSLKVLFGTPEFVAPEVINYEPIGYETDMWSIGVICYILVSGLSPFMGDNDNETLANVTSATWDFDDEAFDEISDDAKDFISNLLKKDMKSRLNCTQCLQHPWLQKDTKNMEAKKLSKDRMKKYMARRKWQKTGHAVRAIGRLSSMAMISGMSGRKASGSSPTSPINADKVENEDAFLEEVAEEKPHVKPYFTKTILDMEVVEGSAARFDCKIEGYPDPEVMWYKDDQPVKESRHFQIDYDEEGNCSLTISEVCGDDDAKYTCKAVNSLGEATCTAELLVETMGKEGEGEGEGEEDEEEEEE

Substance: MLCK (from UniProt P11799)
- Kd [1]: 0.77 µM

Substance: smooth muscle myosin light chain kinase (MLCK) (from UniProt P11799)
- Kd [2]: > 100 µM

Substance: smooth muscle myosin light chain kinase (enzyme)
- Kd of the more weakly bound MLCK pool [3]: 23.8 µM
- Kd of the more weakly bound MLCK pool [4]: 9.5 µM
- percent of MLCK bound to SMM, spin 2 [4]: 75%

Substance: telokin (natural protein)
- Kd [5]: 5 µM
- percent of actin displaced from SMM filaments at 50 uM telokin [4]: 5%
- percent of actin displaced from the SMM coverslip at 50 uM telokin [6]: 9%
